The results in this text go back to publication PMC8280819 (The EMBO Journal, 2021).

For the assay, the target named is His‐SigH (Mycobacterium tuberculosis, UniProt P9WGH8 1-216). Briefly: BLI. For orientation: Biolayer interferometry detects binding as a change in optical thickness at a sensor tip.
Chain of His‐SigH (P9WGH8 whole entry): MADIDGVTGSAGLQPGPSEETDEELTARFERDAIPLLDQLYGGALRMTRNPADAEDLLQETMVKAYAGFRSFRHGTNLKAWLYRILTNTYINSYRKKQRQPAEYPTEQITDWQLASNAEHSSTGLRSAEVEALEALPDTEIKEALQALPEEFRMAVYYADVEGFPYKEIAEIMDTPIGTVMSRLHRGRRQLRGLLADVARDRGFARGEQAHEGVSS

B1: His‐AosR (Rv1332, actinomycetes oxidative stress regulator) (natural protein)
chain: MPPVCGRRCSRTGEIRGYSGSIVRRWKRVETRDGPRFRSSLAPHEAALLKNLAGAMIGLLDDRDSSSPSDELEEITGIKTGHAQRPGDPTLRRLLPDFYRPDDLDDDDPTAVDGSESFNAALRSLHEPEIIDAKRVAAQQLLDTVPDNGGRLELTESDANAWIAAVNDLRLALGVMLEIGPRGPERLPGNHPLAAHFNVYQWLTVLQEYLVLVLMGSR
On to B1, for which the “response, fold over reducing conditions” value was determined as 3 fold.
